From PMC7865940, “Effect of DNA Glycosylases OGG1 and Neil1 on Oxidized G-Rich Motif in the KRAS Promoter”

Molecular target: OGG1 (hOGG1, 8-oxoguanine glycosylase) (UniProt O15527 1-345)
Assay: EMSA; two retarded bands (1:1 and 1:2 suggested); not cleaved; EMSA buffer A: 50 mM Tris-HCl pH 7.4, 100 mM NaCl (duplex) or 100 mM KCl (G4), 1 mM EDTA, 5 mM NaF, 1 mM Na3VO4, 1 mM DTT, 2.5 ng/uL poly[dI-dC], 8% glycerol; 8 nM DNA, 0/1/5 uM protein (also given as 1 and 5 ug), 15 min; native 5% PAGE in TBE at 20 C (Results give buffer B for the G4 incubation)
Details: protein: recombinant; tags: N-terminal His; label: 5'-32P on G-rich strand; annealed with complementary strand in 100 mM NaCl

Sequence of OGG1 (hOGG1, 8-oxoguanine glycosylase) (O15527 whole entry): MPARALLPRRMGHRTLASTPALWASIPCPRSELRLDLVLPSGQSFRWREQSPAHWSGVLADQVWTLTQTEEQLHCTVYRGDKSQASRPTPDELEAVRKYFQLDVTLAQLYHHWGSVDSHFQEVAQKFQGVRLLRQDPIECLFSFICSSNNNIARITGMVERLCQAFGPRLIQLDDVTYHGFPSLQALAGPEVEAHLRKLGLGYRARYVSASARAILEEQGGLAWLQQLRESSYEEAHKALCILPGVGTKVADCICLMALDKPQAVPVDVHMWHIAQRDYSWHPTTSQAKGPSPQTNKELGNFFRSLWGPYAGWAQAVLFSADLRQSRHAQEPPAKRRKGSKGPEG

B1: 32R wild-type duplex (dsDNA)
DNA 1: AGGGCGGTGTGGGAAGAGGGAAGAGGGGGAGG
DNA 2: CCTCCCCCTCTTCCCTCTTCCCACACCGCCCT
- binding result: binds
